Experiments:
[1] = biological target: Cytoplasmic dynein (bovine); assay: two-colour single-molecule assay (TIRF) of reconstituted complexes on microtubules; BicD2, instead of Nesprin-2, labelled with two different colours in DDBN complexes
[2] = biological target: T1, GST-tagged Nesprin-2 (aa 6123–6340) (mouse, UniProt Q6ZWQ0 6123-6340); assay: pull-down; GST-tagged Nesprin-1/2 fragment held on glutathione column (not eluted), incubated 30 min with Ni-NTA-purified His6-BicD2-CTD diluted to 125 mM NaCl; washed twice; eluted with 10 mM glutathione, 50 mM Tris pH 8.0, 150 mM NaCl, 1 mM DTT; SDS-PAGE, Coomassie; band ratio normalised to WT = 1; conditions: both partners purified
T1 construct: lacks the entire intrinsically disordered domain with the LEWD motif; deletion construct of m1; source: E. coli BL21(DE3)-RIL, purified on glutathione resin (not eluted before the pull-down); not shown: GST, N-terminal, kept
T1 sequence (looked up): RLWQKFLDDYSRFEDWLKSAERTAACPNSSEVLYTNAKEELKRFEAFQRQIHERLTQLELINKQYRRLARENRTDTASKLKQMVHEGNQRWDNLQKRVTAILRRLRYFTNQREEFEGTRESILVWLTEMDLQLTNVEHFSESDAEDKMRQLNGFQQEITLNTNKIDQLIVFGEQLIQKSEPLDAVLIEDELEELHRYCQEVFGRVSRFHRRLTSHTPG

[3] = biological target: T2, GST-tagged human Nesprin-1 (aa 7997–8328) (human, UniProt Q8NF91 7997-8328); assay: as above; conditions: both partners purified
T2 construct: Nesprin-1, human, aa 7997-8328 cloned (the results speak of the domain aa 7998-8315: SR70, SR71 and a disordered domain with a LEWD motif); cloned into the same vector (pGEX6p1) as the Nesprin-2 fragment; also called Nesprin-1-SR70-SR71AD; Nesprin-1 fragment; source: E. coli BL21(DE3)-RIL, purified on glutathione resin (not eluted before the pull-down); not shown: GST, N-terminal, kept
T2 sequence (looked up): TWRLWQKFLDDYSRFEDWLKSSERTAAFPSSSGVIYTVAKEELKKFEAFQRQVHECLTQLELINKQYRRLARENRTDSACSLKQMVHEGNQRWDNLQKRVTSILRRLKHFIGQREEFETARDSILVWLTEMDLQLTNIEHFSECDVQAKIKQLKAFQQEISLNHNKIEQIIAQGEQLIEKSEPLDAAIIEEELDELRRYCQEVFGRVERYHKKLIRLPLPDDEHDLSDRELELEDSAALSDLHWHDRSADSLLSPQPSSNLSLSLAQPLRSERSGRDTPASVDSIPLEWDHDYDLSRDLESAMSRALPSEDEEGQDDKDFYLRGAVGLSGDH

[4] = biological target: T3, GST-tagged mouse Nesprin-2 (aa 6123–6421) (mouse, UniProt Q6ZWQ0 6123-6421); assay: as above; conditions: both partners purified
T3 construct: pGEX6p1 vector; codon-optimised insert from Genscript; also called Nesprin-2-SR52-SR53AD; minimal Nesprin-2 fragment; source: E. coli BL21(DE3)-RIL, purified on glutathione resin (not eluted before the pull-down); not shown: GST, N-terminal, kept
T3 sequence (looked up): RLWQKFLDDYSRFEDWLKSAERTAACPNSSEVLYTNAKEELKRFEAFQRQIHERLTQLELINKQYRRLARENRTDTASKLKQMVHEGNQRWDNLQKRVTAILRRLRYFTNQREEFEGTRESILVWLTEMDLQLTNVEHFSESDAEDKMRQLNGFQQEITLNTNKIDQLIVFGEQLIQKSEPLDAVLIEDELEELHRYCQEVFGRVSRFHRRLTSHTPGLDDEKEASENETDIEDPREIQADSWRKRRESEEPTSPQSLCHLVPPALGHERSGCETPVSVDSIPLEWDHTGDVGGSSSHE

[5] = biological target: T4, Nesprin-2 fragment of the purified minimal Nesprin-2/BicD2 complex used for SEC-MALS (mouse); assay: SEC-MALS; purified minimal Nesprin-2/BicD2 complex, GST tag on Nesprin-2; methods in the supplement; conditions: both partners purified
T4 chain: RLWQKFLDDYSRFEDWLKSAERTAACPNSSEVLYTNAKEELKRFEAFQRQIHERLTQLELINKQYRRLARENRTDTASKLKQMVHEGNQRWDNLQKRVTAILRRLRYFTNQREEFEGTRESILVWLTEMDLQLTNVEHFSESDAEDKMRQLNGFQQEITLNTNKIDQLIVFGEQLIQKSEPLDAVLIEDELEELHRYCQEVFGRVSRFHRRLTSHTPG

Full-length, wild-type human BicD2 (from UniProt Q8TD16-2 1-855) (natural protein)
stoichiometry N (BicD2 per DDBN complex) [1]: 1

B1: His6-tagged human BicD2-CTD (aa 715–804) (domain or fragment, UniProt Q8TD16-2 715-804, looked up)
chain: YENEKAMVTETMMKLRNELKALKEDAATFSSLRAMFATRCDEYITQLDEMQRQLAAAEDEKKTLNSLLRMAIQQKLALTQRLELLELDHE
notes: pET28a vector; source: E. coli LOBSTR BL21(DE3)-RIL, purified (Ni-NTA); not shown: His6, N-terminal, kept
binding result [2]: binds | binding result [3]: binds | binding result [4]: binds

B2: BicD2-CTD of the purified minimal Nesprin-2/BicD2 complex used for SEC-MALS (domain or fragment, human, UniProt Q8TD16-2 715-804, looked up)
chain: YENEKAMVTETMMKLRNELKALKEDAATFSSLRAMFATRCDEYITQLDEMQRQLAAAEDEKKTLNSLLRMAIQQKLALTQRLELLELDHE
notes: printed protomer mass 10.9 kDa; also called BicD2 protomer (10.9 kDa)
stoichiometry N [5]: 1 BicD2 per Nesprin-2 (2:2 complex)
